Experimental data: the RNAGym collection of RNA variant scans (doi:10.1073/pnas.2313332121)

B1: TPR t1 (parent)
chain: GACCAAUCUGCCCUCAGAGCUCGAGAACAUCUUCGGAUGCAGAGGAGGCAGGCUUCGGUGGCGCGAUAGCGCCAACGUCCUCAACCUCCAAUGCAUCCCACCACAUGAUGAUGCCUGAAGAGCCUUGGUUUUUUG

Variants of: B1
Test: polymerase ribozyme fitness, log enrichment relative to wild type (log ratio); higher = more active; in vitro selection for triplet polymerase activity
How it was run: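 Streptavidin-bead capture of gel-excised extended constructs, followed by RT-PCR, closed a single triplicate in vitro selection round. That round began by annealing PCR-built, transcribed mutant libraries of each subunit of a heterodimeric triplet polymerase ribozyme with a biotinylated primer, the partner subunit and triplets, then incubating them frozen at −7 °C. After Illumina sequencing of inputs and outputs, genotypes needed ≥10 input reads and ≥1 read per output. Fitness is the base-2 logarithm of genotype enrichment over wild-type enrichment, using inverse-variance-weighted replicate averages.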
With C73U A100C the “polymerase ribozyme fitness (log ratio)” value was -1.34. In the case of G42C A118G, the “polymerase ribozyme fitness (log ratio)” value is reported as -1.93. In the case of C56U U106C G120A, the “polymerase ribozyme fitness (log ratio)” value is reported as 0.203. For A41U G44C G47U C70U A84C A108U G117U, the “polymerase ribozyme fitness (log ratio)” value was -6.98. With C15G A41U C56U U96C C124G the “polymerase ribozyme fitness (log ratio)” value was -2.08. For A29C C49A G77A U78A, the “polymerase ribozyme fitness (log ratio)” value was -3.15. With C22G the “polymerase ribozyme fitness (log ratio)” value was -2.97. With C22A A27C C124A the “polymerase ribozyme fitness (log ratio)” value was -4.12. For U9G G19A G110C U112C C123G C124G, the “polymerase ribozyme fitness (log ratio)” value was -7.8. With G42A C98U the “polymerase ribozyme fitness (log ratio)” value was -2.55. In the case of U7G C40G A50U, the “polymerase ribozyme fitness (log ratio)” value is reported as -0.282. For A27U C97U, the “polymerase ribozyme fitness (log ratio)” value was -3.07. In the case of C11A C72A A91G C101U G113C U132C, the “polymerase ribozyme fitness (log ratio)” value is reported as -4.14. With C86U G117C the “polymerase ribozyme fitness (log ratio)” value was -3.53. With G25C G47A A103U C115G the “polymerase ribozyme fitness (log ratio)” value was -7.4. In the case of G39U C40G C64U U106A U109A G120C, the “polymerase ribozyme fitness (log ratio)” value is reported as -5.69. For C8G C80U, the “polymerase ribozyme fitness (log ratio)” value was 0.0565. With C8A C49A the “polymerase ribozyme fitness (log ratio)” value was 0.247. In the case of C15G C104U U132A, the “polymerase ribozyme fitness (log ratio)” value is reported as -1.67. For A37G G120A, the “polymerase ribozyme fitness (log ratio)” value was 0.248. For A66G C79G U130C, the “polymerase ribozyme fitness (log ratio)” value was -3.06. In the case of A29U C34U G47U C53U, the “polymerase ribozyme fitness (log ratio)” value is reported as -6.51. With C13A G57U the “polymerase ribozyme fitness (log ratio)” value was -1.78. With C11G G42U the “polymerase ribozyme fitness (log ratio)” value was -0.866. In the case of G35U A84C, the “polymerase ribozyme fitness (log ratio)” value is reported as -5.41. In the case of G19A G110U, the “polymerase ribozyme fitness (log ratio)” value is reported as -3.66. With C12G C53A G57U G60U C94U G107U the “polymerase ribozyme fitness (log ratio)” value was -6.32. In the case of G61U U78C G117U, the “polymerase ribozyme fitness (log ratio)” value is reported as -1.99. In the case of A5C U112C, the “polymerase ribozyme fitness (log ratio)” value is reported as 0.655. For A5U C28U A37U C104U C123G, the “polymerase ribozyme fitness (log ratio)” value was -3.39. In the case of C82U C88U, the “polymerase ribozyme fitness (log ratio)” value is reported as -0.335. In the case of G47U U54C C76A U92C, the “polymerase ribozyme fitness (log ratio)” value is reported as -5.69. In the case of G39U C104A G120A, the “polymerase ribozyme fitness (log ratio)” value is reported as -1.22. For G47C A90G, the “polymerase ribozyme fitness (log ratio)” value was -1.06. For U14A G47U, the “polymerase ribozyme fitness (log ratio)” value was -3.55. In the case of A103C A111U U116C, the “polymerase ribozyme fitness (log ratio)” value is reported as -4.99. For C8U A37U C56U A83C C97U C124A, the “polymerase ribozyme fitness (log ratio)” value was -1.47. In the case of C8A A18U G45C A75U U109A, the “polymerase ribozyme fitness (log ratio)” value is reported as -6.43. In the case of G60C C73U, the “polymerase ribozyme fitness (log ratio)” value is reported as -1.41. For C15U U21A G63U, the “polymerase ribozyme fitness (log ratio)” value was -2.12. In the case of C8G C89U U106A, the “polymerase ribozyme fitness (log ratio)” value is reported as 0.442. In the case of C70A C89A C104U A111U G113A G127C, the “polymerase ribozyme fitness (log ratio)” value is reported as -6.35. With G25C C70U C73G A121G U133G the “polymerase ribozyme fitness (log ratio)” value was -7.65. In the case of C49G C101G, the “polymerase ribozyme fitness (log ratio)” value is reported as -1.92. In the case of C8A C15A A41C C49A G58U G63U, the “polymerase ribozyme fitness (log ratio)” value is reported as -3.45. With C62U C76U G127A the “polymerase ribozyme fitness (log ratio)” value was -2.58. With C12A G47U the “polymerase ribozyme fitness (log ratio)” value was -2.48. With A26U C53G C80U the “polymerase ribozyme fitness (log ratio)” value was -3.08. In the case of C56A G69U C88G C115U, the “polymerase ribozyme fitness (log ratio)” value is reported as -1.62. In the case of C72G C88U A91C A118U G122U, the “polymerase ribozyme fitness (log ratio)” value is reported as -2.76. In the case of A2C U112A G127A, the “polymerase ribozyme fitness (log ratio)” value is reported as -0.337. With C11U C53U C73U C85A A121G C123G U126G U129C U130A the “polymerase ribozyme fitness (log ratio)” value was -3.11. With A6U G48U G71C G117A the “polymerase ribozyme fitness (log ratio)” value was -3.59. With A18U G48C G71U C82A the “polymerase ribozyme fitness (log ratio)” value was -5.32. With G69A C102A the “polymerase ribozyme fitness (log ratio)” value was -6.02. For C73A C80G, the “polymerase ribozyme fitness (log ratio)” value was -5.69. With C99U C115U the “polymerase ribozyme fitness (log ratio)” value was -4.48. In the case of A5G C56A G69A C86A, the “polymerase ribozyme fitness (log ratio)” value is reported as -3.95. With C20U C98U the “polymerase ribozyme fitness (log ratio)” value was -1.43. For A2U C15A C114U, the “polymerase ribozyme fitness (log ratio)” value was -6.05. In the case of C72G U87C C99U C115G, the “polymerase ribozyme fitness (log ratio)” value is reported as -5.69. For A2G G36A C49G G69U A90G C97U G120C, the “polymerase ribozyme fitness (log ratio)” value was 0.751. With A37C G120U the “polymerase ribozyme fitness (log ratio)” value was 0.436. In the case of U7A C34A C53A, the “polymerase ribozyme fitness (log ratio)” value is reported as -2.31. In the case of C56U C73G A90U, the “polymerase ribozyme fitness (log ratio)” value is reported as -3.53. For G17U U96A A119G, the “polymerase ribozyme fitness (log ratio)” value was -1.01. In the case of A27U U54G C123U, the “polymerase ribozyme fitness (log ratio)” value is reported as -1.23. For C8U G45C G71A C85A, the “polymerase ribozyme fitness (log ratio)” value was -3.29. With C49U U131A the “polymerase ribozyme fitness (log ratio)” value was -0.481. For G65U C123G, the “polymerase ribozyme fitness (log ratio)” value was -4.68. In the case of C114G U130G U133A, the “polymerase ribozyme fitness (log ratio)” value is reported as -2.19. With A41C C70A U81A U92C the “polymerase ribozyme fitness (log ratio)” value was -5.78. For G47U G120C G127C, the “polymerase ribozyme fitness (log ratio)” value was -1.64. For C13U A37G A118G G127U G128U U131G, the “polymerase ribozyme fitness (log ratio)” value was -0.0788. For C56G U78G A121C, the “polymerase ribozyme fitness (log ratio)” value was 1.64. With A2C C13A the “polymerase ribozyme fitness (log ratio)” value was -2.71. With C73G G120U the “polymerase ribozyme fitness (log ratio)” value was -0.78. With C8G G39A A43C C64U the “polymerase ribozyme fitness (log ratio)” value was -2.65. For C3G G61U, the “polymerase ribozyme fitness (log ratio)” value was -1.85. For U81G A84C U116A G120C, the “polymerase ribozyme fitness (log ratio)” value was -3.83. For G39U G60C G61A A118U, the “polymerase ribozyme fitness (log ratio)” value was -1.64. With U7G C73G C89A C104U A119U the “polymerase ribozyme fitness (log ratio)” value was -2.52. In the case of A2G C70U, the “polymerase ribozyme fitness (log ratio)” value is reported as -0.43.
